Data on three molecules can be found in patent publication US9074002B2, “PTP1B inhibitors” (Cold Spring Harbor Laboratory, priority 2009, dated 2015).

In assay [1] the target is T1, PTP1B (reduced, active) (Homo sapiens, UniProt P18031).
T1 construct: made in house; host or cells: E. coli BL21 (pET19b)
T1 sequence (P18031 3-277 limits assumed): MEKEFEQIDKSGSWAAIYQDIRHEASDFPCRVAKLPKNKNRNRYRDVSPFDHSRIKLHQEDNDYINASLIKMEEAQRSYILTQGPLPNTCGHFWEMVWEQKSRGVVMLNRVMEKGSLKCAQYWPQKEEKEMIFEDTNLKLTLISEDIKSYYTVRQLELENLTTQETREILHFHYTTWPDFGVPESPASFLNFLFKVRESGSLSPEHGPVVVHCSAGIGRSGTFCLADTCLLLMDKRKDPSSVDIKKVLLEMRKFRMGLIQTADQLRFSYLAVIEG
Put plainly: Direct effect of scFvs/antibodies on PTP1B phosphatase activity (32P-pTyr-RCML substrate). It counts as biochemical. To be noted: 32P-labeled pTyr-RCML substrate, FIG. 1. As to the method:
(§1) Applicant's hypothesis was that scFvs that are able to bind to and stabilize the oxidized conformation of PTP1B in solution would inhibit reactivation by reducing agent, but have no direct inhibitory effect on phosphatase activity in assays in vitro. Activity was measured using ^32P-labeled pTyr-Reduced Carboxamidomethylated and Maleylated Lysozyme as substrate. Applicant established conditions in which wild type PTP1B could be reversibly oxidized in vitro. PTP1B was inactivated following addition of H2O2. […] Applicant validated this approach further, by testing the effects of expressing one of the scFvs (scFv45) as a single chain antibody fragment “intrabody” to PTP1B, using 293T cells as the expression system. This intrabody was expressed transiently and then tested for effects on insulin signaling, focusing initially on the tyrosine phosphorylation status of the beta-subunit of the insulin receptor and insulin receptor substrate (IRS-1).
(§2) Reduced carboxamidomethylated and maleylated lysozyme (RCML) was labeled with ^32P using recombinant GST-FER kinase to stoichiometries up to 0.8 (mol ^32P incorporated/mol of protein). This ^32P-Labeled phospho-tyrosyl RCML was used as the substrate in the in-solution phosphatase assay for screening the conformation sensor scFvs. Recombinant PTP1B was reversibly oxidized and transiently inactivated with H2O2 (5× molar excess of the protein). […] Purified bacterially expressed scFvs (100× molar excess of PTP1B) were incubated with PTP after H2O2 treatment and its removal and the effect of individual scFv on stabilizing the reversibly oxidized conformation was assessed by the phosphatase assay under reducing condition.
In order to screen the isolated scFvs for those that inhibit reactivation of PTP1B-OX by reducing agent, but have no direct inhibitory effect on phosphatase activity in assays in vitro, the effect of six scFvs (scFv20, scFv34, scFv45, scFv57, scFv64 and scFv106) on PTP1B activity was determined. PTP1B activity was measured using 32P-labeled pTyr-Reduced Carboxamidomethylated and Maleylated Lysozyme as substrate (FIGS. 1 and 2). Addition of the reducing agent TCEP alone had no substantial effect in PTP1B activity was assessed.

In assay [2] the target is T2, PTP1B-OX (Homo sapiens, UniProt P18031).
T2 construct: made in house; host or cells: E. coli BL21 (pET19b)
T2 sequence (P18031 3-277): T1 sequence (P18031 3-277 limits assumed)
Put plainly: Inhibition of reactivation of reversibly oxidized PTP1B by reducing agent (RCML phosphatase assay). The class given is biochemical. The conditions noted are these: PTP1B oxidized with H2O2, buffer exchange, TCEP added; FIG. 2. As to the method: as §1, §2
In a different experiment, conditions were established in which wild type PTP1B could be reversibly oxidized in vitro. […] Addition of the reducing agent alone had no substantial effect on PTP1B activity (FIGS. 1 and 2, “PTP1B”).

The target of assay [3] is T3, endogenous PTP1B-OX (Homo sapiens, UniProt P18031).
T3 construct: endogenous in cells; host or cells: 293T cells (transfected only with the scFv intrabody)
T3 sequence (P18031 1-435): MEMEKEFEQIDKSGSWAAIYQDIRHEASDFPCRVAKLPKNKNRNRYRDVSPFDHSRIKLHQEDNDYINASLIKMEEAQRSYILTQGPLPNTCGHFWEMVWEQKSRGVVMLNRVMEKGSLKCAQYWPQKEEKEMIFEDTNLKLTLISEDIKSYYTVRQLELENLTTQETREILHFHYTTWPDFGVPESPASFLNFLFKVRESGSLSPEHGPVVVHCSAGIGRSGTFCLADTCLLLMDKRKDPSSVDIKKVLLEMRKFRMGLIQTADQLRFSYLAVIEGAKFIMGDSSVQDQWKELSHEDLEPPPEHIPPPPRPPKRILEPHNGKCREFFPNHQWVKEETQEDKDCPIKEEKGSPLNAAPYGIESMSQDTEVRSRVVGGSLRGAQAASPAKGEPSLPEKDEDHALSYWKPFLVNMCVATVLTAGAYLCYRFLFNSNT
Nature of the assay: Intrabody interaction in 293T cells treated with H2O2 (Ni-NTA pull down / anti-PTP1B immunoprecipitation). The class given is cell-based. To be noted: 1 mM H2O2 5 minutes. As to the method: (§3) One of the positive candidate scFvs (scFv45) was cloned in pcDNA3.2/V5-GW/D-TOPO expression vector and transiently expressed in mammalian cells as stable intracellular antibody (aka intrabody) (FIG. 10). To detect PTP1B-OX and scFv45 interaction in mammalian cells, scFv45 was overexpressed in 293T cells as described herein (See Example 4) and 48 hours post transfection the cells were serum-starved for 16 hours in growth medium (DMEM, low glucose) without serum (FBS), then incubated with 1 mM H2O2 (in growth medium without serum) for 5 minutes at 37° C. or treated with 20 mM NAC (in growth medium without serum) for 1 hour at 37° C. Cells treated with H2O2 were washed twice with cold (4° C.) PBS and lysed in lysis buffer (25 mM HEPES, pH 7.4, 150 mM NaCl, 0.25% Deoxychloate, 1% TritonX-100, 25 mM NaF, 10 mM MgCl2, 1 mM EDTA, 10% Glycerol, 0.5 mM PMSF, 10 mM Benzamidine, protease inhibitor cocktail). Cells treated with NAC were lysed with lysis buffer containing 2 mM TCEP to ensure a post-lysis reducing environment. Interaction between PTP1B and intrabody45 were tested by pulling down the protein complex from 1 mg of total cell lysate with Ni-NTA agarose or by immunoprecipitating PTP with anti-PTP1B (FG6). For the pull down experiment, Ni-NTA agarose beads were incubated with the lysates (both oxidized and reduced) at 4° C. Protein complex bound to the Ni-NTA agarose beads was pulled down and washed three times; first with lysis buffer containing 20 mM imidazole followed by two more washes with wash buffer (PBS, pH 7.4, 20 mM imidazole, 0.05% BSA, 0.05% Tween-20 and protease inhibitors). Applicant used 20 mM imidazole in the wash buffer to reduce the non-specific binding of proteins with the Ni-NTA agarose beads. The complex was eluted with wash buffer containing 500 mM imidazole with gentle shaking at 4° C. and the eluate was mixed with SDS sample buffer with DTT. For the immunoprecipitation experiments, 1 mg of total cell lystates (both oxidized and reduced) was incubated with anti-PTP1B antibody (FG6) at 4° C. The interacting protein complex was immunoprecipitated after incubating the lysate-antibody mixture with protein A/G Sepharose at 4° C. After immunoprecipitation, Sepharose beads were washed three times; first with lysis buffer followed by two more washes with wash buffer (PBS, pH 7.4, 0.05% BSA, 0.05% Tween-20 and protease inhibitors). The Sepharose beads were then heated at 90° C. in 2×SDS sample buffer with DTT. Proteins from the pulled down or immunoprecipitated complex were separated by SDS-PAGE. PTP was detected with anti-PTP1B antibody (FG6) and the intrabodies were detected with anti-HA (3F10)-HRP antibody [anti-HA (3F10)-HRP, Roche] by immunoblotting.
In the initial in vitro phosphatase screening assay using reversibly oxidized (with H2O2) recombinant PTP1B, Applicant found four different PTP1B-OX specific scFvs (scFv45, scFv57, scFv64 and scFv106) from the initial pool of 12 different scFvs. […] Applicant has also shown that scFv45, expressed as an intrabody in mammalian cells, can bind to endogenous PTP1B-OX but not endogenous PTP under reducing conditions. Further assessment was carried out to identify additional PTP1B-OX-specific intrabodies. Additional scFvs have been subcloned in pcDNA3.2/V5-GW/D-TOPO mammalian expression vector (FIG. 10) from their respective phagemid constructs. After transient overexpression of these scFvs as intrabodies in 293T cells, the interaction between endogenous PTP1B and these intrabodies in both H2O2-treated cells and cells was observed under reducing condition (treated with NAC and lysed with lysis buffer containing TCEP). […] All can be used in the methods and compositions described herein. Additional scFvs, such as some or all of the 137 selected individual scFvs from the library, can be similarly tested by in vitro screening and/or by binding assay in mammalian cells.

For assay [4], the target named is T4, endogenous PTP1B under reducing conditions (Homo sapiens, UniProt P18031).
T4 construct: endogenous in cells; host or cells: 293T cells (transfected only with the scFv intrabody)
T4 sequence (P18031 1-435): T3 sequence (P18031 1-435)
Put plainly: Intrabody interaction in 293T cells under reducing condition (NAC, TCEP) (Ni-NTA pull down / immunoprecipitation). The conditions noted are these: 20 mM NAC, lysis buffer with 2 mM TCEP, FIGS. 11, 12. The class given is cell-based. As to the method: as §3
In the initial in vitro phosphatase screening assay using reversibly oxidized (with H2O2) recombinant PTP1B, Applicant found four different PTP1B-OX specific scFvs (scFv45, scFv57, scFv64 and scFv106) from the initial pool of 12 different scFvs. […] Applicant has also shown that scFv45, expressed as an intrabody in mammalian cells, can bind to endogenous PTP1B-OX but not endogenous PTP under reducing conditions. Further assessment was carried out to identify additional PTP1B-OX-specific intrabodies. Additional scFvs have been subcloned in pcDNA3.2/V5-GW/D-TOPO mammalian expression vector (FIG. 10) from their respective phagemid constructs. […]

Entries after “also recorded” stand apart in the source; their conditions may differ.

B1: scFv106: scFv binding PTP1B-OX, SEQ ID NO: 29 and 133 (protein)
scFv: MKKTAIAIAVALAGFATVAQAALTQPSSVSANPGETVKITCSGDSSDYGYGWYQQKSPGSAPVTVTYSNNQRPPNIPSRFSGSASGSTATLTITGVQVEDEAVYYCGSEDSTTDAVFGAGTTLTVLGQSSRSSAMTLDESGGGLQTPGGALSLVCKASGFTFSSYDMGWVRQAPGKGLEYVAGITNDGRYASYGSAVDGRATISRDNGQSTVRLQLNNLRAEDTGTYYCARDDGSGWTGNTIDTWGHGTEVIVSSTSGQAGQHHHHHHGAYPYDVPDYAS
Take B1: the “direct effect on PTP1B activity” value in assay [1] is “no direct inhibition of PTP activity”. The “inhibition of reactivation of PTP1B-OX by reducing agent (restoration of PTP1B activity after reversible oxidation)” value in assay [2] is reported as “substantial inhibition of the restoration of PTP1B activity”. The “binding of intrabody to endogenous PTP1B-OX” value in assay [3] (FIGS. 11, 12) is on record as “bound to endogenous PTP1B-OX strongly; also recorded: co-pulldown of PTP1B-OX in the presence of H2O2”. The “binding of intrabody to endogenous PTP1B under reducing conditions” value in assay [4] was “not in the presence of NAC and TCEP”.

B2: scFv136: additional scFv, SEQ ID NO: 153 and 160 (protein)
scFv: MKKTAIAIAVALAGFATVAQAALTQPSSVSANPGETVKITCSGGSYSYGWYQQKSPGSAPVTVIYSSDKRPSDIPSRFSGSKSGSTSTLTITGVQAEDEAVYYCGSRDSNYVGIFGAGTTLTVLGQSSRSSTVTLDESGGGLQTPGGALSLVCKASGFTFSSYEMQWVRQAPGKGLEFVAAISSDGSYTNYGAAVQGRATISRDNGQSTVRLQLSNLRAEDTATYYCARSPGGYTWWPGAAGGIDAWGHGTEVIVSSTSGQAGQHHHHHHGAYPYDVPDYAS
Consider B2, for which the “binding of intrabody to endogenous PTP1B-OX” value in assay [3] (FIGS. 11, 12) is “co-pulldown of PTP1B-OX in the presence of H2O2”; in assay [3] (FIGS. 11, 12, listed as scFv 136), “bound weakly to PTP1B-OX”. Besides, the “binding of intrabody to endogenous PTP1B under reducing conditions” value in assay [4] was “not in the presence of NAC and TCEP”.

B3: scFv64: scFv binding PTP1B-OX, SEQ ID NO: 28 and 97 (protein)
scFv: MKKTAIAIAVALAGFATVAQAALTQPSSVSANPGDPLKITCSGDSSGYGYGWYQQKSPGSAPVTVIYNNNKRPSDIPSRFSGSKSGSTGTLTITGVQAEDEAVYFCGSEDSNTDAVFGAGTTLTVLGQSSRSSTVTLDESGGGLQTPGGTLSLACKASGFTFSGYDMGWVRQAPGKGLEYVAGITSDGRYASYGSAVDGRAAIWRDNGQSTVRLQLKNLRTEDTATYYCARNDGSGWNGNNIDAWGHGTEVIVSSTSGQAGQHHHHHHGAYPYDVPDYAS
Take B3: the “direct effect on PTP1B activity” value in assay [1] was “no direct inhibition of PTP activity”. Also, the “inhibition of reactivation of PTP1B-OX by reducing agent (restoration of PTP1B activity after reversible oxidation)” value in assay [2] is listed as “substantial inhibition of the restoration of PTP1B activity”. Besides, the “binding of intrabody to endogenous PTP1B-OX” value in assay [3] (FIGS. 11, 12) is reported as “bound weakly to PTP1B-OX”.
